For data set [1], the target named is T1, HIV-1 reverse transcriptase (HXB2, group M subtype B) (Human immunodeficiency virus 1, UniProt P04585 SEQ:1-560). Nature of the data set: inhibition; DDDP, K+ buffer. The following applies: tags: expressed in E. coli. On the procedure:
FIG. 13 Sequence plasticity of stems and loops. Inhibition of RT DDDP activity by aptamer variants. Aptamer concentrations (nM) are indicated above the lanes. (A) Aptamer TKQ4 retains inhibition even though it carries a G-to-A mutation in the fourth of the 12 G's that comprise the quadruplex. […] Similar titrations were carried out in triplicate for all aptamers for which IC50 values are reported. Aptamer R1T was included in subsequent panels to provide a consistent reference baseline of inhibition. (C) RT inhibition by aptamer SN, in which quadruplex loops are replaced with hexaethylene glycol. (D) and (E), RT inhibition by aptamers carrying mutations in helical stem domain, as detailed in text.
(§1) Reactions were assembled in reaction buffer (50 mM Tris-HCl pH 8.3, 75 mM KCl, 5 mM MgCl2, 10 mM DTT) with 30 nM primer, 45 nM template and 0.2 mM dNTPs. After annealing primer and template strands, DNA aptamers were added. Reactions were initiated by adding RT to a final concentration of 3 nM active site. […] Additional reactions included 1 μM and 3 μM where indicated. After 10 min at 37° C., reactions were quenched by addition of 2 volumes (20 μl) of gel-loading buffer (95% formamide with 0.01% bromophenol blue). For reactions assessing monovalent ion dependence, 75 mM KCl was replaced with 75 mM NaCl where indicated.

The target of data set [2] is T1, HIV-1 reverse transcriptase (HXB2, …). Description: inhibition; DDDP, K+ buffer. The following applies: tags: expressed in E. coli. How it is done:
as §1
This is another data set of the same source.

Data set [3] shares this target. Description: inhibition; DDDP, K+ buffer; p136 states not significantly different from L1. The following applies: tags: expressed in E. coli; hairpin + G4, T16 connector. On the procedure:
as §1

[4] abbreviates: hairpin + G4, termini within quadruplex.

Data on 22 molecules can be found in patent publication US20090305281, “NOVEL INHIBITORS OF RETROVIRAL REVERSE TRANSCRIPTACE” (THE CURATORS OF THE UNIVERSITY OF MISSOURI, published 2009).

As for CGCCTGACCCTTCAGGCGTTGGGTGGGTGGGTGGG (ssDNA) [S4], the IC50 (as a rule, the midpoint of a concentration-inhibition curve) in data set [1] (hairpin (CCCT tetraloop) + G4) is 32 nM.

Take GGGTGGGTTGCGGACTCATAGCGATTAGTCCGCTTGGGTGGG (ssDNA) [Acutrev]: the IC50 in data set [2] (setting [4]) was determined as 33 nM.

B1: RT6 (ssDNA)
DNA: ATCCGCCTGATTAGCGATACTCAGGCGTTAGGGAAGGGCGTCGAAAGCAGGGTGGGACTTGAGCAAAATCACCTGCAGGG
As to B1, in data set [2] (hairpin + G4), the IC50 stood at 36 nM.

In the case of CGGATTAGCGATACTCCGTTGGGTGGGTGGGTGGG (ssDNA) [S2], the IC50 in data set [1] (hairpin + G4) is 110 nM.

On to GGGTGGGTTCGCCTGATTAGCGATACTCAGGCGTTGGGTGGG (ssDNA) [Acut], for which the IC50 in data set [2] (hairpin + G4, termini between 2nd and 3rd G triplets) came out at 22 nM.

B2: RT6-B (Vor) (ssDNA)
DNA: CGCCTGATTAGCGATACTCAGGCGTTAGGGAAGGGCGTCGAAAGCAGGGTGGG
Consider B2, for which the IC50 in data set [2] (hairpin + G4) was found to be 5.7 nM.

With GGGTTCGCCTGATTAGCGATACTCAGGCGTTGGGTGGGTGGG (ssDNA) [Bcut], in data set [2] (setting [4]), the IC50 stood at 48 nM.

As to CGCCTGATTAGCGATACTCAGGCGTTTTTTTTGGGTGGGTGGGTGGG (ssDNA) [L4], the half-maximal inhibitory concentration (IC50) in data set [2] (hairpin + G4, T8 connector) turned out to be 28 nM.

In the case of CGCCTGATTAGCGATACTCAGGCGTTGGGTTTTGGGTTTTGGGTTTTGGG (ssDNA) [R4T], the IC50 in data set [1] (hairpin + G4) is about 35 nM.

Take CGCCTGATTAGCGATACTCAGGCGTTTTGGGTGGGTGGGTGGG (ssDNA) [L3]: the IC50 in data set [2] (hairpin + G4, T4 connector) was 13 nM.

On to CGCCTGATTAGCGATACTCAGGCGTTGGGCGGGCGGGCGGG (ssDNA) [R1C], for which the IC50 in data set [1] (hairpin + G4) is 26 nM.

In the case of CGCCTGATTAGCGATACTCAGGCGAAGGGTGGGTGGGTGGG (ssDNA) [L6], the IC50 in data set [2] (hairpin + G4, A2 connector) was found to be 13 nM.

For CGCCTGATTAGCGATACTCAGGCGTTGGGTGGGTGGGTGGG (ssDNA) [R1T], the IC50 in data set [2] (hairpin + G4) was found to be 14 nM.

For the molecule CGCCTGATTAGCGATACTCAGGCGTTGGGAGGGAGGGAGGG (ssDNA) [R1A], in data set [1] (hairpin + G4), the 50% inhibitory concentration (IC50) came to 18 nM.

B3: R8T (ssDNA)
DNA: CGCCTGATTAGCGATACTCAGGCGTTGGGTTTTTTTTGGGTTTTTTTTGGGTTTTTTTTGGG
With B3, the IC50 in data set [1] (hairpin + G4) amounted to 20 nM.

CGCCTGATTAGCGATACTCAGGCGTTGGGTTGGGTTGGGTTGGG (ssDNA) [R2T]: in data set [1] (hairpin + G4), the IC50 came to 13 nM.

B4: ZAM1 (ssDNA)
DNA: CGCCTGATTAGCGCGCGCCGCGTTTTCGCGGCGCGCGCTACTCAGGCGTTGGGTGGGTGGGTGGG
Take B4: the IC50 in data set [1] (hairpin (22 bp) + G4) was 10 nM.

B5: L10 (ssDNA)
DNA: CGCCTGATTAGCGATACTCAGGCGTTTTTTTTTTTTTTTTGGGTGGGTGGGTGGG
As to B5, in data set [3], the concentration for half-maximal inhibition (IC50) was found to be 120 nM.

As to CGTGATTAGCGATACTCACGTTGGGTGGGTGGGTGGG (ssDNA) [S1], in data set [1] (hairpin + G4), the concentration for half-maximal inhibition (IC50) is 59 nM.

B6: RT6-A (ssDNA)
DNA: ATCCGCCTGATTAGCGATACTCAGGCGTTAGGGAAGGGTAGCGATACAGGGTGGG
With B6, the IC50 in data set [2] (hairpin + G4) is 16 nM.

Regarding GGGTGGGTGGGTTCGCCTGATTAGCGATACTCAGGCGTTGGG (ssDNA) [Ecut], the half-inhibitory concentration (IC50) in data set [2] (setting [4]) is 99 nM.

For the molecule CCGGACTCATAGCGATTAGTCCGGTTGGGTGGGTGGGTGGG (ssDNA) [Srevstem], the IC50 in data set [1] (hairpin + G4) was 26 nM.
